Test results taken from paper PMC6842305 (Journal of medicinal chemistry, 2018).

Biological target: Truncated WDR5 (Δ23, residues 22–334) (UniProt P61964 22-334)
Assay: NMR titration

Ac-ARTEVHLRKS-NH2 [MLL1 10mer peptide Ac-ARTEVHLRKS-NH2]
binding result: binds
